In patent EP0910659B1, “ANTIBODIES AGAINST A COMPLEX OF CD4 AND A CHEMOKINE RECEPTOR DOMAIN, AND THEIR USE AGAINST HIV INFECTIONS” (United Biomedical, Inc., priority 1996, dated 1997):

Tests used:
[1] = biological target: recombinant soluble CD4 (rsCD4) (human); assay: ELISA, rsCD4-coated wells
[2] = biological target: rsCD4 preincubated with CC-CKR2b domain 3 peptide p2088a (human) (UniProt P41597); assay: ELISA, rsCD4 0.25 µg/mL preincubated with peptide, B4 0.1 µg/mL; against rsCD4 alone
[3] = biological target: rsCD4 preincubated with CC-CKR3 domain 4 peptide p2082a (human) (UniProt P51677); assay: as above
[4] = biological target: rsCD4 preincubated with CC-CKR5 domain 3 peptide p2047a (human) (UniProt P51681); assay: as above
[5] = biological target: rsCD4 preincubated with CC-CKR2b domain 2 peptide p2087a (human) (UniProt P41597); assay: as above
[6] = biological target: rsCD4 preincubated with CC-CKR5 domain 3 peptide p2047a (human) (UniProt P51681); assay: ELISA, rsCD4/CC-CKR5-D3 coated wells
[7] = biological target: CD4 on the surface of CD4-expressing cells (host cell antigen complex comprising CD4) (human); assay: HPB-ALL cells pre-incubated with MAb 10 µg/mL; competitor biotinylated B4
[8] = biological target: rsCD4 preincubated with CC-CKR5 domain 3 peptide p2047a (human) (UniProt P51681); assay: ratio of the rsCD4 IC50 values of the two ELISA inhibition assays
[9] = biological target: recombinant soluble CD4 (rsCD4) (human); assay: rsCD4 ELISA
[10] = biological target: CD4 on the surface of CD4-expressing cells (host cell antigen complex comprising CD4) (human); assay: cell-based or functional assay
[11] = biological target: recombinant soluble CD4 (rsCD4) (human); assay: rsCD4 ELISA, purified B4 2 µg/mL, no competitor
[12] = biological target: CD4 on the surface of CD4-expressing cells (host cell antigen complex comprising CD4) (human); assay: indirect immunofluorescence, HPB-ALL cells
[13] = biological target: recombinant soluble CD4 (rsCD4) (human); assay: direct ELISA, rsCD4 wells pretreated with p1624a; B4-HRP 50 µg/mL, PBS instead of competitor
[14] = biological target: CD4 on the surface of CD4-expressing cells (host cell antigen complex comprising CD4) (human); assay: HPB-ALL cells, biotinylated B4 0.71 µg/mL, no competitor
[15] = biological target: CD4 on the surface of CD4-expressing cells (host cell antigen complex comprising CD4) (human); assay: indirect immunofluorescence, HPB-ALL cells pre-incubated with gp120 (competitor)
[16] = biological target: recombinant soluble CD4 (rsCD4) (human); assay: competition ELISA, rsCD4 wells pretreated with p1624a; MAb 50 µg/mL; competitor B4-HRP 50 µg/mL
[17] = biological target: CD4 on the surface of CD4-expressing cells (host cell antigen complex comprising CD4) (human); assay: HPB-ALL cells pre-incubated with MAb 50 µg/mL, then gp120-FITC (competitor)
[18] = biological target: CD4 on the surface of CD4-expressing cells (host cell antigen complex comprising CD4) (human); assay: SUP-T cells, biotinylated B4, no competitor
[19] = biological target: CD4 on the surface of CD4-expressing cells (host cell antigen complex comprising CD4) (human); assay: HPB-ALL cells, biotinylated B4 1:1000 + FITC-avidin, no competitor

Sequence of rsCD4 preincubated with CC-CKR5 domain 3 peptide p2047a (human) (P51681 168-199, form in doubt): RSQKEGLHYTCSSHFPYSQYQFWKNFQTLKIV
Sequence of rsCD4 preincubated with CC-CKR2b domain 3 peptide p2088a (human) (P41597 182-207, form in doubt): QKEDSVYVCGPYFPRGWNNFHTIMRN

Substance: monoclonal antibody B4
- endpoint binding concentration (OD492nm reading of 1.0) [1]: 2 µg/mL
- degree of enhancement of MAb B4-rsCD4 binding (grade 0 to 8) [2]: > 4 +
- degree of enhancement of MAb B4-rsCD4 binding (grade 0 to 8) [3]: 8 +
- degree of enhancement of MAb B4-rsCD4 binding (grade 0 to 8) [4]: 5 +
- degree of enhancement of MAb B4-rsCD4 binding (grade 0 to 8) [5]: > 4 +
- endpoint binding concentration (OD492nm reading of 1.0) [6]: 0.1 µg/mL
- % Positive cells (biotinylated B4 staining) [7]: 0%
- Intensity of staining (biotinylated B4) [7]: 0
- fold improvement of affinity over MAb B4 for rsCD4 alone [8]: 15 fold
- A492 nm reactivity to rsCD4 [9]: 1.42 A492
- 50% Inhbt., HIV-1 primary isolate 23135, MT-2 Microplaque Neutralization Assay [10]: 0.21 µg/mL
- 50% Inhbt., HIV-1 primary isolate BR014, MT-2 Microplaque Neutralization Assay [10]: 0.19 µg/mL
- 50% end point for neutralization of HIV-1 primary isolate (23135) [10]: 0.21 µg/mL
- 90% Inhbt., HIV-1 primary isolate 23135, MT-2 Microplaque Neutralization Assay [10]: 1.54 µg/mL
- 90% Inhbt., HIV-1 primary isolate BR014, MT-2 Microplaque Neutralization Assay [10]: 1.63 µg/mL
- HIV-1 DH-12 (chimp PBL-grown), PBMC Infection Reduction Assay [10]: 3 logs killed
- HIV-1 DH-12, 50% Inhib, MT-2 Microplaque Assay [10]: 0.33 µg/mL
- HIV-1 DH-12, 90% Inhib, MT-2 Microplaque Assay [10]: 2.1 µg/mL
- HIV-2 287, PBMC Infectivity Reduction Assay with MAb B4 at 10 µg/mL [10]: 1.5 logs killed
- HIV-2 ROD, 50%, MT2 Microplaque Neutralization Assay [10]: 0.7 µg/mL
- HIV-2 ROD, 90%, MT2 Microplaque Neutralization Assay [10]: 8.5 µg/mL
- SHIV 89.6, 50%, p27 Antigen Neutralization Assay [10]: 0.088 µg/mL
- SHIV IIIB, 50%, p27 Antigen Neutralization Assay [10]: 0.679 µg/mL
- SIV239, 50%, p27 Antigen Neutralization Assay [10]: 1.3 µg/mL
- SIV251 (huPBMC), 80%, p27 Antigen Neutralization Assay [10]: 1 µg/mL
- SIV251, 50%, p27 Antigen Neutralization Assay [10]: 2 µg/mL
- A492 nm [11]: 0.679 A492
- % of HPB-ALL cells reactive [12]: > 90%
- A492 nm [13]: 1.66 A492
- % Positive cells [14]: > 95%
- % of cells reactive after prior binding of gp120 [15]: > 90%
- % Inhibition [16]: 80%
- A492 nm (B4-HRP signal) [16]: 0.338 A492
- % of cells stained by gp120-FITC after prior binding with MAb [17]: 0%
- positive rate [18]: 95%
- % Positive cells [19]: > 95%
- Intensity of staining [19]: 2
